The series concerns O=C(Cc1cccs1)N[C@@H]1C(=O)N2C(C(=O)O)=C(/C=C/c3ccc([N+](=O)[O-])cc3[N+](=O)[O-])CS[C@H]12. Briefly: purified protein. The format is biochemical, Acinetobacter baumannii.

The term Km denotes the concentration of substrate that gives half-maximal velocity.

Consider “ADC-7 β-lactamase (Acinetobacter-derived cephalosporinase) (Acinetobacter baumannii)”, for which the Km stood at 21.2 µM.
